In article PMC4749557:

Tests used:
[1] = biological target: 12 clones that bound to human PRDM14 (monobodies; the members other than Mb(S4) and Mb(S14) are not given); assay: yeast surface display; KD of monobody clones displayed on yeast for hPRDM14
[2] = biological target: Mb(hPRDM14_S14) displayed on the yeast surface; assay: as above
[3] = biological target: Mb(hPRDM14_S14) displayed on the yeast surface; assay: yeast surface display; monobodies on the yeast surface with 50 nM of hPRDM14 or a homologue

Kd [1]: < 100 nM
Kd [2]: < 100 nM
fold stronger binding than hPRDM6 and hPRDM12 [3]: > 5 fold
B1: human PRDM14 (residues 238–487) (domain or fragment)
chain: LPQTLDKDSLQLPEGLCLMQTVFGEVPHFGVFCSSFIAKGVRFGPFQGKVVNASEVKTYGDNSVMWEIFEDGHLSHFIDGKGGTGNWMSYVNCARFPKEQNLVAVQCQGHIFYESCKEIHQNQELLVWYGDCYEKFLDIPVSLQVTEPGKQPSGPSEESAEGYRCERCGKVFTYKYYRDKHLKYTPCVDKGDRKFPCSLCKRSFEKRDRLRIHILHVHEKHRPHKCSTCGKCFSQSSSLNKHMRVHSGDR
modifications: biotin (biotin-acceptor tag)
